{
  "source": "patent US5811393A",
  "about": "(The Childrens Medical Center Corp., priority 1993, dated 1998)",
  "molecules": {"B1": {"name": "HB-EHM: novel heparin binding growth factor with EGF-homologous segment, purified from U-937 lymphoma cell conditioned medium, about 22 kD (protein)", "chain": "RVTLSSKPQALATPNKEEHGKRKKKGKGLGKKRDPCLRKYKDFCIHGECKYVKELRAPSCICHPGYHGERCHGLS", "modifications": "O-linked glycosylation (suggested by O-glycanase treatment; the threonines predicted at positions 2 and 12 of the form first sequenced were not detected in protein sequencing)"}},
  "key": {"[1]": {"system": "bovine aortic smooth muscle cells", "assay": "[3H]-thymidine incorporation into smooth muscle cell DNA", "assay_type": "cell-based", "conditions": "purification steps of HB-EHM from 8 L U-937 conditioned medium", "description": "(§1) Conditioned medium was assayed for growth factor activity directly, as described below, using either fibroblasts (i.e., BALB/c mouse 3T3 cells), epithelial cells (i.e., human keratinocytes), or smooth muscle cells (i.e., bovine aortic smooth muscle cells, BASMC). Alternatively, CM was first fractionated by fast protein liquid chromatography (FPLC, Pharmacia, Piscataway, N.J.) by applying 500 ml of the CM to a TSK-heparin 5PW column (8×75 mm, TOSOHAAS, Philadelphia, Pa.). The column was washed with 10 column volumes of equilibration buffer (0.2M NaCl, 0.01M Tris-HCl, pH 7.5), and bound protein was eluted with a 40 ml linear gradient of 0.2-2M NaCl in 0.01M Tris-HCl , pH 7.4 at 1 ml/min. Fractions (2.5 ml) were tested for growth factor activity by measuring the effect of aliquots of the fractions on DNA synthesis in, or the proliferation of, BALB/c mouse 3T3 cells; such activity was monitored by assaying the incorporation of [^3 H]-thymidine into DNA and/or by measuring the increase in cell number. Measurement of DNA synthesis in BALB/c mouse 3T3 cells was performed as described by Shing et al. (223 Science 1296, 1984, hereby incorporated by reference). One unit of BALB/c mouse 3T3 stimulation activity was defined as the amount of growth factor required to stimulate half-maximal DNA synthesis in BALB/c mouse 3T3 cells under the conditions described in Shing et al. (supra). […]"}, "[2]": {"system": "bovine aortic smooth muscle cells (BASMC)", "assay": "Bovine aortic smooth muscle cell proliferation by cell counting", "assay_type": "cell-based", "conditions": "100 pg/ml; cells counted after three days, 1% calf serum", "description": "Bovine aortic smooth muscle cell proliferation was also assayed by counting cell number following growth factor stimulation. In these experiments, cells were plated sparsely in 24 well plates in DMEM/10% bovine calf serum/1% GPS (100% GPS is glutamine 29.2 mg/ml, penicillin 10,000 units/ml, streptomycin sulfate 10,000 μg/ml; GIBCO, Grand Island, N.Y.) at 10^4 cells/well. Test samples were then added and, after three days, cells were removed by trypsinization and counted in a Coulter counter (Coulter, Hialeah, Fla.).\nBASMC were plated in DMEM, 10% calf serum, 100 U/ml penicillin, 100 μg/ml streptomycin sulfate at 5×10^3 cells/well in a 24 well plate, and, after attachment of the cells (e.g., following an overnight incubation), the media was replaced with DMEM, 1% calf serum, and penicillin and streptomycin as above. HB-EHM, recombinant human EGF (Creative Biomolecules, Hopkinton, Mass.), or recombinant PDGF (Creative Biomolecules, Hopkinton, Mass.) was then added to the wells. Cells were counted after three days."}, "[3]": {"system": "bovine capillary endothelial cells", "assay": "Proliferation / DNA synthesis of bovine capillary endothelial cells", "assay_type": "cell-based", "conditions": "purified form", "description": "as §1"}, "EGF receptor": {"system": "EGF receptor", "assay": "EGF receptor autophosphorylation in A-431 cells (anti-phosphotyrosine Western blot)", "assay_type": "cell-based, human", "conditions": "5 ng/ml, 15 minutes", "description": "This was shown by plating A-431 cells in 6-well plates and culturing in Dulbecco's Modified Eagle's Medium (DMEM) containing 10% fetal bovine serum and antibiotics. […] After 15 minutes, the cells were washed with ice-cold phosphate-buffered saline containing 0.4 mm EDTA, 10 mM Na-fluorate, 10 mM Na-pyrophosphate and 0.4 mM Na-orthovanadate, scraped and lysed in 100 μl of PI/RIPA buffer [1% NP-40 (Pierce, Rockford, Ill.), 1% deoxycholate (Aldrich, Milwaukee, Wis.), 0.1% SDS, 1% aprotinin (Boehringer-Mannheim, Indianapolis, Ind.), 1 mM PMSF (Pierce), 2 mM EDTA (Sigma), 10 mM Na-fluorate, (Sigma, St. Louis, Mo.), 10 mM Na-pyrophosphate (Baker, Phillipsburg, N.J.), 0.4 mM Na-orthovanadate, (Aldrich), 10 mM iodoacetamide (Aldrich) in phosphate buffered saline]. Thirty μl of supernatant clarified by spinning for a 5 minute period in a microfuge was analyzed by reducing SDS/polyacrylamide gel electrophoresis (6% polyacrylamide gel). […] A standard of phosphorylated EGF receptor was purchased from UBI (Lake Placid, N.Y.)."}, "[4]": {"assay": "Stability of growth-stimulatory activity to acid, heat and DTT (read out in BALB/c 3T3 [3H]-thymidine assay)", "assay_type": "physicochemical", "description": "as §1, with “(supra). To measure DNA synthesis in bovine capillary endothelial cells, cells were trypsinized and re-plated sparsely (1×10^4 cells/well) with 400 μl of Dulbecco's modified Eagle's medium (DMEM, GIBCO, Grand Island, N.Y.) supplemented with 10% bovine calf serum (GIBCO, Grand Island, N.Y.) and antibiotics (100 units/ml penicillin and 100 μg/ml streptomycin sulfate, GIBCO, Grand Island, N.Y.) in 48-well plates (Costar, Cambridge, Mass.). After 24 hours of incubation, the medium was replaced with the same volume of DMEM supplemented with 2% bovine calf serum, antibiotics, 1 μM thymidine and 0.5% bovine serum albumin. After 24 hours of incubation, the test samples were added to the wells. Eighteen hours later, [^3 H]-thymidine (0.6 uCi/well, New England Nuclear, Wilmington, Del.) was added. After an additional 5 hours, each plate was treated by the same procedure as used to harvest the BALB/c mouse 3T3 cells to measure the incorporation of [^3 H]-thymidine into the DNA of the cells. To measure DNA synthesis in bovine aortic smooth muscle cells (from Dr. H. Weich, Children's Hospital, Boston), the cells were trypsinized and re-plated sparsely (1×10^4 cells/well) with 400 μl of DMEM supplemented with 10% Colorado calf serum (Colorado Serum Company) and antibiotics (100 units/ml penicillin and 100 μg/ml streptomycin sulfate, GIBCO, Grand Island, N.Y.) in 48-well plates.” for “(supra).”"}},
  "data": [
    {"molecule": "B1", "values": [
      {"measurement": "Maximal Stimulation", "setting": "[1]", "result": 0.5, "unit": "ng/mL"},
      {"measurement": "increase in BASMC proliferation", "setting": "[2]", "result": 2.5, "unit": "fold"},
      {"measurement": "proliferation of bovine capillary endothelial cells", "setting": "[3]", "result": "did not stimulate proliferation"},
      {"measurement": "autophosphorylation of the EGF receptor (170 kDa protein)", "setting": "EGF receptor", "result": "triggered autophosphorylation"},
      {"measurement": "growth-stimulatory activity after exposure to DTT", "setting": "[4]; 5 mM DTT for 2 hours, 3T3 [3H]-thymidine readout", "result": "destroyed completely"},
      {"measurement": "activity after acid treatment with glycine-HCl", "setting": "[4]; 0.1M glycine-HCl, pH 2.5 for 2 hours", "result": "not lost"},
      {"measurement": "growth-stimulatory activity after heating", "setting": "[4]; 90° C. for 5 minutes, 3T3 [3H]-thymidine readout", "result": "not destroyed"},
      {"measurement": "growth-stimulatory activity after exposure to pH 2.5", "setting": "[4]; pH 2.5 for 2 hours, 3T3 [3H]-thymidine readout", "result": "resistant"}
    ]}
  ]
}
